Nine molecules from patent publication US20260132197A1 (NANJING LEGEND BIOTECH, published 2026) can be followed below.

In test [1] the target is T1, Human CD47-C33G (human, UniProt Q08722 19-135).
T1 construct: also called CD47 mutein with C33G mutation
Briefly: SPR, IgG captured, CD47 in flow; exp 1.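 Note: biacore T200 SPR using IgG from supernatants of transfected HEK293 cells, rate constants fitted to association and dissociation curves, Kd derived from koff over kon.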

Test [2] concerns the target T2, wild type human CD47 (Acro Biosystems, cat. no. CD7-H5227) (human, UniProt Q08722 19-139).
T2 construct: Bought protein used as SPR analyte; also called Human CD47 wt; wild-type CD47
Briefly: SPR, IgG captured, CD47 in flow; exp 1.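 Note: biacore T200 SPR using IgG from supernatants of transfected HEK293 cells, rate constants fitted to association and dissociation curves, Kd derived from koff over kon.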

Test [3] deals with T1, Human CD47-C33G. Briefly: SPR, IgG captured, CD47 in flow; exp 2.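 Note: IgG from HEK293 cell supernatants tested by SPR on a BIAcore T200, C33G mutein prevents IgV homodimers for monovalent affinity, KD derived from association and dissociation rates.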
For test [4], the target named is T2, wild type human CD47 (Acro Biosystems, …). Kind of test: SPR, IgG captured, CD47 in flow; exp 2.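 Note: IgG from HEK293 cell supernatants tested by SPR on a BIAcore T200, C33G mutein prevents IgV homodimers for monovalent affinity, KD derived from association and dissociation rates.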
Test [5] concerns the target T1, Human CD47-C33G. Kind of test: SPR, IgG captured, CD47 in flow; exp 3.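 Note: biacore T200 SPR with antibodies taken from supernatants of transfected HEK293 cells, C33G mutein avoiding IgV homodimers for monovalent affinity, Kd derived from association and dissociation rate constants.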
For test [6], the target named is T2, wild type human CD47 (Acro Biosystems, …). Briefly: SPR, IgG captured, CD47 in flow; exp 3.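 Note: biacore T200 SPR with antibodies taken from supernatants of transfected HEK293 cells, C33G mutein avoiding IgV homodimers for monovalent affinity, Kd derived from association and dissociation rate constants.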
For test [7], the target named is T3, human CD47 on cells (SHP-77 tumor cells, human red blood cells, CCRF-CEM cells, human CD47 CHO-K1 stable cell … (human, UniProt Q08722 19-323)).
T3 construct: whole, on cells; also called RBC
Kind of test: flow cytometry on human RBCs.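 Note: antibody binding measured by flow cytometry as geometric mean fluorescence intensity over a range of antibody concentrations, with EC50 and maximum taken from a sigmoidal dose-response fit.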

For test [8], the target named is T1, Human CD47-C33G. Kind of test: SPR, IgG captured, CD47 in flow; exp 4.
Test [9] deals with T2, wild type human CD47 (Acro Biosystems, …). Briefly: SPR, IgG captured, CD47 in flow; exp 4.
The target of test [10] is T3, human CD47 on cells (SHP-77 tumor …). Briefly: flow cytometry on SHP-77 cells.
The target is the same in test [11]. Kind of test: cell-based or functional assay.
Test [12] has as its target T1, Human CD47-C33G. Kind of test: SPR, IgG captured, CD47 in flow; exp 4. This is another data set of the same source.
Test [13] addresses T2, wild type human CD47 (Acro Biosystems, …). Kind of test: SPR, IgG captured, CD47 in flow; exp 4. This is another data set of the same source.

Where a chain is given by its changes, count along the chain named. Names may count otherwise.

B1: 108VH5 / 108VL1.M5 (antibody, human IgG4 S228P, kappa, V domains shown)
VH: EVQLVQSGAEVKKPGASVKVSCKASGYSFTHHWIHWVRQAPGQGLEWMGMIDPSDSETRLSQKFKDRVTMTRDTSTSTVYMELSSLRSEDTAVYYCARLGRYYFDYWGQGTLVTVSS
VL: EIVLTQSPATLSLSPGERATLSCRASQSVSSYLAWYQQKPGQAPRLLIYGASNRATGIPARFSGSGSGTDFTLTISSLEPEDFAVYYCGESYGHLYTFGGGTKVEIKR
notes: Full-length IgG4 (S228P), kappa; also called VH5 VL1.M5
With B1, the Kd with Human CD47-C33G [1] came out at 3.4 nM; in test [2], 0.83 nM; with Human CD47-C33G [3], 3.9 nM; in test [4], 0.82 nM. For the same molecule, the koff with Human CD47-C33G [1] turned out to be 0.0012 s⁻¹; in test [2], 0.00065 s⁻¹; in the test with Human CD47-C33G [3], 0.0012 s⁻¹; in test [4] it was 0.00059 s⁻¹. Also, the kon with Human CD47-C33G [1] came out at 340000 M⁻¹ s⁻¹; in test [2], 780000 M⁻¹ s⁻¹; with Human CD47-C33G [3] it was 310000 M⁻¹ s⁻¹; in test [4], 720000 M⁻¹ s⁻¹.

B2: 108VH5.M12 / 108VL1.M5 (antibody, human IgG4 S228P, kappa, V domains shown)
VH: B1 VH with S28T, I34M, P53A, L60Y, S61A, K65Q, D66G
VL: B1 VL
notes: Full-length IgG4 (S228P), kappa; also called VH5.M12 VL1.M5
In the test with Human CD47-C33G [3], B2 came in with a Kd of 15 nM, a koff of 0.0041 s⁻¹ and a kon of 280000 M⁻¹ s⁻¹. Also, in [4], binding was characterised by a dissociation constant (Kd) of 2.7 nM, the koff came out at 0.002 s⁻¹ and the kon was 730000 M⁻¹ s⁻¹.

B3: 108VH5.M14 / 108VL1.M5 (antibody, human IgG4 S228P, kappa, V domains shown)
VH: B1 VH with S28T, P53A, S56G, L60Y, S61A, K65Q, D66G
VL: B1 VL
notes: Full-length IgG4 (S228P), kappa; also called VH5.M14 VL1.M5
B3: in the test with Human CD47-C33G [3], binding was put at a Kd of 14 nM, the koff was 0.0037 s⁻¹ and the kon was found to be 260000 M⁻¹ s⁻¹. Further, in test [4], the Kd turned out to be 2.6 nM, the koff amounted to 0.0018 s⁻¹ and the kon is 690000 M⁻¹ s⁻¹.

B4: 108VH5.M10 / 108VL1.M5 (antibody, human IgG4 S228P, kappa, V domains shown)
VH: B1 VH with S28T, P53A, L60Y, S61A, K65Q, D66G
VL: B1 VL
notes: Full-length IgG4 (S228P), kappa; also called VH5.M10 VL1.M5
Regarding B4, in the test with Human CD47-C33G [3], the Kd was found to be 16 nM, the koff came out at 0.004 s⁻¹ and the kon was 250000 M⁻¹ s⁻¹. In test [4], this molecule came in with a Kd of 2.8 nM, a koff of 0.0019 s⁻¹ and a kon of 660000 M⁻¹ s⁻¹.

B5: 108VH5.M17 / 108VL1.M5 (antibody, human IgG4 S228P, kappa, V domains shown)
VH: B1 VH with S28T, I34M, P53A, D55E, S56G, L60Y, S61A, K65Q, D66G
VL: B1 VL
notes: Full-length IgG4 (S228P), kappa; also called VH5.M17 VL1.M5
For B5, in the test with Human CD47-C33G [5], the Kd turned out to be 1300 nM, the koff is 0.084 s⁻¹ and the kon was determined as 64000 M⁻¹ s⁻¹. In [6], this molecule gave a Kd of 18 nM, a koff of 0.0084 s⁻¹ and a kon of 460000 M⁻¹ s⁻¹.

B6: 108VH5.M21 / 108VL1.M5 (antibody, human IgG4 S228P, kappa, V domains shown)
VH: B1 VH with S28T, I34M, P53A, S56F, L60Y, S61A, K65Q, D66G
VL: B1 VL
notes: Full-length IgG4 (S228P), kappa; also called VH5.M21 VL1.M5
Regarding B6, in test [7], the EC50 is 9.2 nM and the “Fitted Maximal MFI” value was 40800 MFI. In the test with Human CD47-C33G [8], this molecule showed a Kd of 51 nM, a koff of 0.008 s⁻¹ and a kon of 160000 M⁻¹ s⁻¹. In test [9], this molecule returned a Kd of 6.5 nM, a koff of 0.0032 s⁻¹ and a kon of 490000 M⁻¹ s⁻¹. Also, in test [10], the EC50 turned out to be 11.9 nM and the “Fitted Maximal MFI” value turned out to be 37400 MFI. In [11], the “CCRF-CEM phagocytosis EC50” value came out at 0.32 nM and the “CCRF-CEM phagocytosis, Phagocytosis (%)” value was 51.9%.

B7: 108VH5.M18 / 108VL1.M5 (antibody, human IgG4 S228P, kappa, V domains shown)
VH: B1 VH with S28T, I34M, P53A, D55E, L60Y, S61A, K65Q, D66G
VL: B1 VL
notes: Full-length IgG4 (S228P), kappa; also called VH5.M18 VL1.M5
In the test with Human CD47-C33G [5], B7 came in with a Kd of 1200 nM, a koff of 0.087 s⁻¹ and a kon of 75000 M⁻¹ s⁻¹. Moreover, in test [6], the Kd came to 12 nM, the off-rate (koff) is 0.002 s⁻¹ and the kon was found to be 170000 M⁻¹ s⁻¹.

B8: 108VH10.Mo / 108VL10.Me (antibody, V domains shown)
VH: EVQLVESGGGLVQPGGSLRLSCAASGFTFSHHWIHWVRQAPGKGLEWVAMIDASDSETRLSDSFKGRFTISADTSKNTAYLQMNSLRAEDTAVYYCSRLGRYYFDYWGQGTLVTVSS
VL: DIQMTQSPSSLSASVGDRVTITCRASQSISSYLNWYQQKPGKAPKLLIYGASSRYSGVPSRFSGSRSGTDFTLTISSLQPEDFATYYCGESYGHLYTFGQGTKVEIK
notes: 4D5-framework series; also called VH10.Mo VL10.Me
In the test with Human CD47-C33G [12], B8 returned a Kd of 45 nM, a koff of 0.0093 s⁻¹ and a kon of 210000 M⁻¹ s⁻¹. Further, in test [13], binding was characterised by a dissociation constant (Kd) of 5.8 nM, the koff was 0.0032 s⁻¹ and the association rate constant (kon) was 560000 M⁻¹ s⁻¹. In addition, in [7], the EC50 was determined as 3.4 nM and the “Fitted Maximal MFI” value stood at 19200 MFI. For the same molecule, in [10], the response was half-maximal at 7.9 nM (EC50) and the “Fitted Maximal MFI” value is 34500 MFI. Also, in [11], the “CCRF-CEM phagocytosis EC50” value is 0.18 nM and the “CCRF-CEM phagocytosis, Phagocytosis (%)” value was found to be 56.4%.

B9: 108VH10.Mp / 108VL10.Me (antibody, V domains shown)
VH: B8 VH with S61V
VL: B8 VL
notes: 4D5-framework series; constant regions not restated for this series; also called VH10.Mp VL10.Me
B9: in the test with Human CD47-C33G [12], the Kd is 170 nM, the koff was 0.012 s⁻¹ and the kon came to 72000 M⁻¹ s⁻¹. Also, in [13], the Kd amounted to 15 nM, the koff worked out at 0.0039 s⁻¹ and the association rate constant (kon) amounted to 250000 M⁻¹ s⁻¹. Further, in [7], the response was half-maximal at 23.6 nM (EC50) and the “Fitted Maximal MFI” value stood at 16100 MFI. Besides, in test [10], the EC50 came to 27.5 nM and the “Fitted Maximal MFI” value was 24100 MFI. For the same molecule, in test [11], the “CCRF-CEM phagocytosis EC50” value is 1.2 nM and the “CCRF-CEM phagocytosis, Phagocytosis (%)” value turned out to be 47.1%.
